Source: IntAct's records for PubMed 31515488

B1: UBX domain-containing protein 2B (Homo sapiens), Q14CS0 (parent)
chain: MAEGGGPEPGEQERRSSGPRPPSARDLQLALAELYEDEVKCKSSKSNRPKATVFKSPRTPPQRFYSSEHEYSGLNIVRPSTGKIVNELFKEAREHGAVPLNEATRASGDDKSKSFTGGGYRLGSSFCKRSEYIYGENQLQDVQILLKLWSNGFSLDDGELRPYNEPTNAQFLESVKRGEIPLELQRLVHGGQVNLDMEDHQDQEYIKPRLRFKAFSGEGQKLGSLTPEIVSTPSSPEEEDKSILNAVVLIDDSVPTTKIQIRLADGSRLIQRFNSTHRILDVRNFIVQSRPEFAALDFILVTSFPNKELTDESLTLLEADILNTVLLQQLK
partner: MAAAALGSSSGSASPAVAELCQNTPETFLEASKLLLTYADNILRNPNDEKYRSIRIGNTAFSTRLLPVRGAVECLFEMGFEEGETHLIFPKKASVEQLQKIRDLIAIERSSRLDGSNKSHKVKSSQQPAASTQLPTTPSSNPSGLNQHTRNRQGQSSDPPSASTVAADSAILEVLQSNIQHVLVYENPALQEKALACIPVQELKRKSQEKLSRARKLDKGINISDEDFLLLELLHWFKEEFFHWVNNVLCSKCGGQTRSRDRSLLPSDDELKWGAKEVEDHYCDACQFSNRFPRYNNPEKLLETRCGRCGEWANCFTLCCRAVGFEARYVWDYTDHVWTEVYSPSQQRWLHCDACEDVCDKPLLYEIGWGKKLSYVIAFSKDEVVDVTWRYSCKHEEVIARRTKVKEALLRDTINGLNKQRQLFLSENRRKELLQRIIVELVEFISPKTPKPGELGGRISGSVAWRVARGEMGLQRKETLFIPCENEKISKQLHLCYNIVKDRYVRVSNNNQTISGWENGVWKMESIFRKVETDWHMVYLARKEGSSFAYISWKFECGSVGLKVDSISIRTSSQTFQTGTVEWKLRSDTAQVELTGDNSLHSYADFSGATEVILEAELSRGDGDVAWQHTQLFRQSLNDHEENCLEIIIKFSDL
B2: Tuftelin-interacting protein 11 (Homo sapiens), Q9UBB9 (parent)
chain: MSLSHLYRDGEGRIDDDDDERENFEITDWDLQNEFNPNRQRHWQTKEEATYGVWAERDSDDERPSFGGKRARDYSAPVNFISAGLKKGAAEEAELEDSDDEEKPVKQDDFPKDFGPRKLKTGGNFKPSQKGFAGGTKSFMDFGSWERHTKGIGQKLLQKMGYVPGRGLGKNAQGIINPIEAKQRKGKGAVGAYGSERTTQSMQDFPVVDSEEEAEEEFQKELSQWRKDPSGSKKKPKYSYKTVEELKAKGRISKKLTAPQKELSQVKVIDMTGREQKVYYSYSQISHKHNVPDDGLPLQSQQLPQSGKEAKAPGFALPELEHNLQLLIDLTEQEIIQNDRQLQYERDMVVNLFHELEKMTEVLDHEERVISNLSKVLEMVEECERRMQPDCSNPLTLDECARIFETLQDKYYEEYRMSDRVDLAVAIVYPLMKEYFKEWDPLKDCTYGTEIISKWKSLLENDQLLSHGGQDLSADAFHRLIWEVWMPFVRNIVTQWQPRNCDPMVDFLDSWVHIIPVWILDNILDQLIFPKLQKEVENWNPLTDTVPIHSWIHPWLPLMQARLEPLYSPIRSKLSSALQKWHPSDSSAKLILQPWKDVFTPGSWEAFMVKNIVPKLGMCLGELVINPHQQHMDAFYWVIDWEGMISVSSLVGLLEKHFFPKWLQVLCSWLSNSPNYEEITKWYLGWKSMFSDQVLAHPSVKDKFNEALDIMNRAVSSNVGAYMQPGARENIAYLTHTERRKDFQYEAMQERREAENMAQRGIGVAASSVPMNFKDLIETKAEEHNIVFMPVIGKRHEGKQLYTFGRIVIYIDRGVVFVQGEKTWVPTSLQSLIDMAK
partner: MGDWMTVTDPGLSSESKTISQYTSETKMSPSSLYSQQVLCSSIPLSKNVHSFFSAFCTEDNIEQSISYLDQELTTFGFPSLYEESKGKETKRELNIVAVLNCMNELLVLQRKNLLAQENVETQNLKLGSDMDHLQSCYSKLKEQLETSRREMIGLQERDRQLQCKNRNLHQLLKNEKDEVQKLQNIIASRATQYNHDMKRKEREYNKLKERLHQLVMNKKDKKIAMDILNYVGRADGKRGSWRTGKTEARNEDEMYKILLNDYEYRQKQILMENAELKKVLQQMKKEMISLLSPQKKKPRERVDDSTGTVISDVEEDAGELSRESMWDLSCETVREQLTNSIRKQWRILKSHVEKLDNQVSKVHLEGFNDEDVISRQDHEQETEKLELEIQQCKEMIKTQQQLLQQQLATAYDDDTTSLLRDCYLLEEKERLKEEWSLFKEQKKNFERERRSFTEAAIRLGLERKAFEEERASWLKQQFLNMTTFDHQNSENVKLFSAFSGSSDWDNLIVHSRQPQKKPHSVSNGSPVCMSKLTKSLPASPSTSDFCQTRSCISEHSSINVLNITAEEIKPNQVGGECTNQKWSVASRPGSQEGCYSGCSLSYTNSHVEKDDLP
B3: Protein transport protein (Homo sapiens), Q15437 (parent)
chain: MATYLEFIQQNEERDGVRFSWNVWPSSRLEATRMVVPLACLLTPLKERPDLPPVQYEPVLCSRPTCKAVLNPLCQVDYRAKLWACNFCFQRNQFPPAYGGISEVNQPAELMPQFSTIEYVIQRGAQSPLIFLYVVDTCLEEDDLQALKESLQMSLSLLPPDALVGLITFGRMVQVHELSCEGISKSYVFRGTKDLTAKQIQDMLGLTKPAMPMQQARPAQPQEHPFASSRFLQPVHKIDMNLTDLLGELQRDPWPVTQGKRPLRSTGVALSIAVGLLEGTFPNTGARIMLFTGGPPTQGPGMVVGDELKIPIRSWHDIEKDNARFMKKATKHYEMLANRTAANGHCIDIYACALDQTGLLEMKCCANLTGGYMVMGDSFNTSLFKQTFQRIFTKDFNGDFRMAFGATLDVKTSRELKIAGAIGPCVSLNVKGPCVSENELGVGGTSQWKICGLDPTSTLGIYFEVVNQHNTPIPQGGRGAIQFVTHYQHSSTQRRIRVTTIARNWADVQSQLRHIEAAFDQEAAAVLMARLGVFRAESEEGPDVLRWLDRQLIRLCQKFGQYNKEDPTSFRLSDSFSLYPQFMFHLRRSPFLQVFNNSPDESSYYRHHFARQDLTQSLIMIQPILYSYSFHGPPEPVLLDSSSILADRILLMDTFFQIVIYLGETIAQWRKAGYQDMPEYENFKHLLQAPLDDAQEILQARFPMPRYINTEHGGSQARFLLSKVNPSQTHNNLYAWGQETGAPILTDDVSLQVFMDHLKKLAVSSAC
partner: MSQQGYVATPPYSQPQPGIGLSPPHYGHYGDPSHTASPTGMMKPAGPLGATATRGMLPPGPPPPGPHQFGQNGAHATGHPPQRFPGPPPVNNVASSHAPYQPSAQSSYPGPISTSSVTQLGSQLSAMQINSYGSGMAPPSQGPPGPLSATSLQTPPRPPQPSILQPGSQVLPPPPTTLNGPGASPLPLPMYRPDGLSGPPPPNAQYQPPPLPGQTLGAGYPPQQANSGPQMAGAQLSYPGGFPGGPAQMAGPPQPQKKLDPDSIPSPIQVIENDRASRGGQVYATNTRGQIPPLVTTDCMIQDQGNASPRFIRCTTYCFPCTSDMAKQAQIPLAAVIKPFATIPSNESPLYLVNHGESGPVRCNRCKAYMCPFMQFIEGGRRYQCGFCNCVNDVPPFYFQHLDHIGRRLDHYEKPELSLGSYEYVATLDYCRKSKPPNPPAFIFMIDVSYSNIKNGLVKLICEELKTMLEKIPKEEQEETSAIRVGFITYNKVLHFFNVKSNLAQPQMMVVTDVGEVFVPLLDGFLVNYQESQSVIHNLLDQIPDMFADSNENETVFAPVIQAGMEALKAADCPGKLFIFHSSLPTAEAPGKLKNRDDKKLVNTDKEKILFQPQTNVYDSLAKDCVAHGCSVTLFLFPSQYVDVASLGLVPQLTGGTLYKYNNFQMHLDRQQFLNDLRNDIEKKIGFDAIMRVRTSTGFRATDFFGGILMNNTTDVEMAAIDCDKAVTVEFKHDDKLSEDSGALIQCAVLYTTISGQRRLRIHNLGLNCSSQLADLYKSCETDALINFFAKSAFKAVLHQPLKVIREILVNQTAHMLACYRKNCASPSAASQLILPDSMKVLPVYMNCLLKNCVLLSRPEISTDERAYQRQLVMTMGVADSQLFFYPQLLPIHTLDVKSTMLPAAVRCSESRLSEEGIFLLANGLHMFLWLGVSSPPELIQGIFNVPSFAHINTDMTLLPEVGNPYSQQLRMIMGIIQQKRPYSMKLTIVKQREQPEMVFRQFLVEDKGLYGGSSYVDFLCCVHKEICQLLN
B4: Notch homolog 2 N-terminal-like protein A (Homo sapiens), Q7Z3S9 (parent)
chain: MCVTYHNGTGYCKCPEGFLGEYCQHRDPCEKNRCQNGGTCVAQAMLGKATCRCASGFTGEDCQYSTSHPCFVSRPCLNGGTCHMLSRDTYECTCQVGFTGKECQWTDACLSHPCANGSTCTTVANQFSCKCLTGFTGQKCETDVNECDIPGHCQHGGTCLNLPGSYQCQCLQGFTGQYCDSLYVPCAPSPCVNGGTCRQTGDFTFECNCLPETVRRGTELWERDREVWNGKEHDEN
partner: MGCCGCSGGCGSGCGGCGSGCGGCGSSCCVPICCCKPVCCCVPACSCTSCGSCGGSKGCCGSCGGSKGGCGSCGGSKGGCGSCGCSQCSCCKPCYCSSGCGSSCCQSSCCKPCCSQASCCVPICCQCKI

Variants of: B1
Conditions: with ngly1_human NGLY1, Q96IV0

| Variant | effect of a mutation on the interaction |
| --- | --- |
| D109A | with no effect |

Variants of: B2
Conditions: with adip_human SSX2IP

| Variant | effect of a mutation on the interaction |
| --- | --- |
| S688L | with no effect |
| R8Q | with no effect |

Variants of: B3
Conditions: with sc24d_human SEC24D

| Variant | effect of a mutation on the interaction |
| --- | --- |
| V426I | with no effect |

Variants of: B4
Conditions: with kra56_human KRTAP5-6, Q6L8G9

| Variant | effect of a mutation on the interaction |
| --- | --- |
| A115T | with no effect |
